Experimental data reported in the supplement of paper PMC7125110.
± gives the standard error. Fewer inactive variants are shown than the library holds.

B1: glmS ribozyme (parent)
chain: AUAAAAGCGCCAGAACUACAGAAAUGUAGUUGACGAGGAGGAGGUUUAUCGAAUUUUCGGCGGAUGCCUCCAAA

Assays:
Conditions in all cases: with glucosamine-6-phosphate
glucosamine-6-phosphate [1] = variants of: B1; experiment: self-cleavage kobs at 40 uM GlcN6P; higher = faster cleavage; RNA array
Procedure, shortened: (§1)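 Tiles of sequenced MiSeq chips were imaged over ~14 h at 37 °C. On them, barcoded ribozyme variants had been transcribed in situ by E. coli RNA polymerase and were tracked via a hybridised Cy3 probe while glucosamine-6-phosphate (40 μM to 10 mM) in HEPES/KCl/Mg(OAc)2 buffer flowed in. Per-tile medians, normalised to baseline and to non-cleaving reference variants, were fit to one- or two-exponential decays for kobs, and weighted Michaelis–Menten fits gave kcat and KM.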

glucosamine-6-phosphate [2] = variants of: B1; experiment: self-cleavage kobs at 10000 uM GlcN6P; higher = faster cleavage; RNA array
Procedure, shortened: as §1

glucosamine-6-phosphate [3] = variants of: B1; experiment: self-cleavage kobs at 160 uM GlcN6P; higher = faster cleavage; RNA array
Procedure, shortened: as §1

glucosamine-6-phosphate [4] = variants of: B1; experiment: self-cleavage kobs at 640 uM GlcN6P; higher = faster cleavage; RNA array
Procedure, shortened: as §1

glucosamine-6-phosphate [5] = variants of: B1; experiment: self-cleavage kobs at 2500 uM GlcN6P; higher = faster cleavage; RNA array
Procedure, shortened: as §1

| Variant | self-cleavage kobs at 40 uM GlcN6P (glucosamine-6-phosphate [1]) | self-cleavage kobs at 10000 uM GlcN6P (glucosamine-6-phosphate [2]) | self-cleavage kobs at 160 uM GlcN6P (glucosamine-6-phosphate [3]) | self-cleavage kobs at 640 uM GlcN6P (glucosamine-6-phosphate [4]) | self-cleavage kobs at 2500 uM GlcN6P (glucosamine-6-phosphate [5]) |
| --- | --- | --- | --- | --- | --- |
| AUAAAAGCGCCAGAAAUACAGAAAUGUAGUAUACGAGGACAAGGUUUAUCGAAUUUUCGGCGGAUGUUUCCAAA [C16A U31A G32U G40C G41A C67U C68U] | < 1e-05 s⁻¹ | < 1e-05 s⁻¹ |  |  |  |
| AUAAACGCGGCAGAACUACAGAAAUGUAGUUGACGAGGAGGAGGUUUAUCGAAUUUUCGGCGGAUGCCUCCAAA [A6C C10G] | < 1e-05 s⁻¹ | < 1e-05 s⁻¹ | < 1e-05 s⁻¹ | < 1e-05 s⁻¹ |  |
| AUAAAAGCGCCAGAAUUACAGAAAUGUAGUUGACGAGGAGGUGGCUUAUCGAAUUUUCAGCGGAUGCUUCCAAA [C16U A42U U45C G59A C68U] | < 1e-05 s⁻¹ | < 1e-05 s⁻¹ |  |  |  |
| AUAAAAGCGCCAGAACUACAGAAAUGUAGUUUAGGAGGAGGAGGUUUAUCGAAUUUUCGGCGGAUGCCUCCAAA [G32U C34G] | < 1e-05 s⁻¹ | < 1e-05 s⁻¹ | < 1e-05 s⁻¹ | < 1e-05 s⁻¹ |  |
| AUAAAAGCGCCAGAACUACAGAAAUGUAGUUGACGAGGAGGAGGUUUAUCGAAUUCGCGGCGGAUGCCUCCAAA [U56C U57G] | < 1e-05 s⁻¹ | 8.26e-05 ± 2.1e-05 s⁻¹ |  |  | 2.91e-05 ± 1.2e-05 s⁻¹ |
| AUAAAAGCGCCCGAACUACAGAAAUGUAGUACAAGAGGAGGAGGUUAAUCGAAUUUUCGGCGGAUGCCUCUAAA [A12C U31A G32C C34A U47A C71U] | < 1e-05 s⁻¹ | < 1e-05 s⁻¹ |  |  |  |
| AUAAAAGAGCCAGAACUACAGAAAUGUAGUUGACGAGGAGGAGGUUUAUGGAAUUUUCGGCGGAUGCCUCCAAA [C8A C50G] | 5.03e-05 ± 1.7e-05 s⁻¹ |  | 0.000112 ± 3.3e-05 s⁻¹ | 0.00101 ± 0.00048 s⁻¹ | 9.84e-05 ± 2.6e-05 s⁻¹ |
| AUAAAAUCGCCAGAACUACAGAAAUGUAGUUGACGAGGCGGAGGUUUAUCGAAUUUUCGGCGGAUGCCUCCAAA [G7U A39C] | < 1e-05 s⁻¹ | < 1e-05 s⁻¹ | < 1e-05 s⁻¹ | < 1e-05 s⁻¹ |  |
| AUAAAAGCGCCAGAACUACAGAAAUGUAGUUGACGAGGAGGAGGUUUCUCGAAUUUUUGGCGGAUGCCUCCAAA [A48C C58U] | < 1e-05 s⁻¹ | < 1e-05 s⁻¹ | < 1e-05 s⁻¹ | < 1e-05 s⁻¹ |  |
| AUAAAAGCGCCAGAACUACAGAAAUGUAGUUGACGAGGAGGAGGUUAAUCGAAUUUGUGGCGGAUGCCUUCAAA [U47A U57G C58U C70U] | < 1e-05 s⁻¹ |  |  |  |  |
| AUAAAAGCACCAGAAGUACAGAAAUGUAGUUGACGAGGAGGAGGUUUAUCGAAUUUUCGGCGAGUGCCUCCAAA [G9A C16G G63A A64G] | < 1e-05 s⁻¹ |  | < 1e-05 s⁻¹ | < 1e-05 s⁻¹ | < 1e-05 s⁻¹ |
| AUAAAAGCCCCAGAACUACAGAAAUGUAGUUGACGAGGAGGAGGCUAAUCGAAUUUUCGGCGGAUGGCUCCAAA [G9C U45C U47A C67G] | < 1e-05 s⁻¹ |  |  |  |  |
| AUAAAAGUGCCUGAACUACAGAAAUGUAGUUGCCGAGGAGGAGGUUUAUCGAAUUUUCUGCGGAUGGCGCCAAA [C8U A12U A33C G59U C67G U69G] | < 1e-05 s⁻¹ | < 1e-05 s⁻¹ |  |  | < 1e-05 s⁻¹ |
| AUAAAAGCGCCAGAACUACAGAAAUGUAGUUGAUGAGGAUGAGGUUUAUCGAAUUUUCGGCGGAUGCCUCCAAA [C34U G40U] | < 1e-05 s⁻¹ | < 1e-05 s⁻¹ | < 1e-05 s⁻¹ |  | < 1e-05 s⁻¹ |
| AUAAAAGCGCCAGAAGUACAGAAAUGUAGUUGACGAGGAGGAGGUUUAUCGAAUUUUCGGCGGAUGCCCCCAAA [C16G U69C] | 5.13e-05 ± 2e-05 s⁻¹ | 0.000195 ± 5.5e-05 s⁻¹ |  |  |  |
| AUAAAAGCGACAGAACUACAGAAAUGUAGUUGACGAGGAGGAGGUGGAUGGAAUUUUGGGCGGAUGCUUCCAAA [C10A U46G U47G C50G C58G C68U] | 0.000116 ± 2.2e-05 s⁻¹ | 0.000242 ± 4.3e-05 s⁻¹ |  |  |  |
| AUAAAAGCGCCAGAACUACAGAAAUGUAGUUGAAGAGGAGGAGGUUUAUCGAAUUUUCGGCGGAUGCCUCAAAA [C34A C71A] | < 1e-05 s⁻¹ | < 1e-05 s⁻¹ |  | < 1e-05 s⁻¹ |  |
| AUAAAAGAGGCAGAACUACAGAAAUGUAGUUGACGAGGAGGAGGUUUAUCGAAUUUUCGGCGGAUGCCUCCAAA [C8A C10G] | < 1e-05 s⁻¹ | < 1e-05 s⁻¹ | < 1e-05 s⁻¹ | < 1e-05 s⁻¹ | < 1e-05 s⁻¹ |
| AUAAAAGCGCCAGAACUACAGAAAUGUAGUUGACGAGUAGGAGGUUUAUCCAAUUUUCGGCGGAUGCCUCCAAA [G38U G51C] | < 1e-05 s⁻¹ |  |  | < 1e-05 s⁻¹ | < 1e-05 s⁻¹ |
| AUAAAAGCGCCAGAACUACAGAAAUGUAGUUCACGAGGAGGAGGUUGAUCGAAUUUUCGGCGGAUGGCUCCAAA [G32C U47G C67G] | 0.000392 ± 0.00015 s⁻¹ | 6.01e-05 ± 2.5e-05 s⁻¹ |  |  |  |
| AUAAAAGCGCCAGAACUACAGAAAUGUAGUUGACCAGGAGGAGGUUUAUCGAAUUUUCGACGGAUGCCUCCAAA [G35C G60A] | < 1e-05 s⁻¹ | < 1e-05 s⁻¹ |  | < 1e-05 s⁻¹ |  |
| AUAAAAGCGCCAGAACUACAGAAAUGUAGUUGACGAGGUGGGGGUUUAUCGAAUUUUCGGCGGAUGUCUCCAAA [A39U A42G C67U] | 0.000231 ± 6.2e-05 s⁻¹ | 0.0241 ± 0.0085 s⁻¹ | 0.000536 ± 0.00015 s⁻¹ |  | 0.00297 ± 0.00075 s⁻¹ |
| AUAAAAGGCCCAGAACUACAGAAAUGUAGUUGACGAGGAGGAGGUUUAUCGAAUAUUCGGCGGAUGCCUCCAAA [C8G G9C U55A] | < 1e-05 s⁻¹ | < 1e-05 s⁻¹ |  | < 1e-05 s⁻¹ | < 1e-05 s⁻¹ |
| AUAAAAGCGCCAGAACUACAGAAAUGUAGUUGACGAGCAGGAGGUUUAUCGAAUUCUCGGCGGAUGCCUCCAAA [G38C U56C] | < 1e-05 s⁻¹ | < 1e-05 s⁻¹ | < 1e-05 s⁻¹ |  | < 1e-05 s⁻¹ |
| AUAAAAGCGCCAGAACUACAGAAAUGUAGUUGACGAGGAGGAGGUUUAUCGAAUUUUCGGCUGAUGCCUACAAA [G62U C70A] | < 1e-05 s⁻¹ |  |  |  |  |
| AUAAAAGCGCCAGAACUACAGAAAUGUAGUUUACGGGGAGCAGGUUUAUCGUAUUUUCGGCGGAUGACUCCAAA [G32U A36G G41C A52U C67A] | < 1e-05 s⁻¹ |  |  |  |  |
